The supplement of paper PMC9112550, “Optimization of the antimicrobial peptide Bac7 by deep mutational scanning” (BMC Biology, 2022)
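Note: peptides expressed intracellularly from a pBAD plasmid library in pooled LB shake-flask culture, induced with 0.3% L-arabinose, DNA abundance read by NGS, three biological replicates, DESeq2 with apeglm shrinkage.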

These sequences were tested on Escherichia coli TOP10 (assay: shrunken log2 fold change of peptide-encoding DNA abundance (4.5 h post-induction vs induction); higher = less antimicrobial activity (less host growth inhibition)). Settings: time post-induction: 4.5 h; library: site-saturation at positions 5, 18, 19, 20.
In the case of RRIRYRPPRLPRPRPRPTTPPRP, the “shrunken log2 fold change” value is reported as -0.437. In the case of RRIRWRPPRLPRPRPRPMAHPRP, the “shrunken log2 fold change” value is reported as 0.0444. In the case of RRIRGRPPRLPRPRPRPPHHPRP, the “shrunken log2 fold change” value is reported as 0.537. RRIRMRPPRLPRPRPRPKSEPRP was tested, and the “shrunken log2 fold change” value was 0.0246. For RRIRMRPPRLPRPRPRPDQYPRP, the “shrunken log2 fold change” value was -0.418. For RRIRQRPPRLPRPRPRPMYEPRP, the “shrunken log2 fold change” value was -0.01. With RRIRIRPPRLPRPRPRPWFCPRP the “shrunken log2 fold change” value was -0.322. For RRIRNRPPRLPRPRPRPEDTPRP, the “shrunken log2 fold change” value was -0.0307. RRIRRRPPRLPRPRPRPLGMPRP was tested, and the “shrunken log2 fold change” value was 0.471. With RRIRWRPPRLPRPRPRPARVPRP the “shrunken log2 fold change” value was 0.413. With RRIRFRPPRLPRPRPRPYSPPRP the “shrunken log2 fold change” value was -0.324. With RRIRKRPPRLPRPRPRPRMIPRP the “shrunken log2 fold change” value was -0.00692. For RRIRSRPPRLPRPRPRPRPYPRP, the “shrunken log2 fold change” value was -0.244. RRIRIRPPRLPRPRPRPALGPRP was tested, and the “shrunken log2 fold change” value was 0.0956. For RRIRVRPPRLPRPRPRPGSIPRP, the “shrunken log2 fold change” value was 0.00983. With RRIRLRPPRLPRPRPRPAAQPRP the “shrunken log2 fold change” value was 1.25. RRIRRRPPRLPRPRPRPIFRPRP was tested, and the “shrunken log2 fold change” value was 0.584. RRIRHRPPRLPRPRPRPRIAPRP was tested, and the “shrunken log2 fold change” value was 0.0721. With RRIRRRPPRLPRPRPRPEQAPRP the “shrunken log2 fold change” value was -0.0266. In the case of RRIRIRPPRLPRPRPRPHRRPRP, the “shrunken log2 fold change” value is reported as -0.056. For RRIRTRPPRLPRPRPRPTAPPRP, the “shrunken log2 fold change” value was 0.159. For RRIRIRPPRLPRPRPRPIMAPRP, the “shrunken log2 fold change” value was -0.286. In the case of RRIRQRPPRLPRPRPRPYHHPRP, the “shrunken log2 fold change” value is reported as -0.186. For RRIRWRPPRLPRPRPRPFPCPRP, the “shrunken log2 fold change” value was -0.0902. With RRIRLRPPRLPRPRPRPYFEPRP the “shrunken log2 fold change” value was -0.453. In the case of RRIRRRPPRLPRPRPRPNEEPRP, the “shrunken log2 fold change” value is reported as 0.0468. RRIRGRPPRLPRPRPRPDAAPRP was tested, and the “shrunken log2 fold change” value was 3.73. For RRIRYRPPRLPRPRPRPSREPRP, the “shrunken log2 fold change” value was -0.0635. In the case of RRIRWRPPRLPRPRPRPNHEPRP, the “shrunken log2 fold change” value is reported as -0.197. For RRIRKRPPRLPRPRPRPSESPRP, the “shrunken log2 fold change” value was 0.0559. In the case of RRIRFRPPRLPRPRPRPSCIPRP, the “shrunken log2 fold change” value is reported as -0.603. For RRIRHRPPRLPRPRPRPPEDPRP, the “shrunken log2 fold change” value was 0.314. For RRIRVRPPRLPRPRPRPYYTPRP, the “shrunken log2 fold change” value was -1.39. With RRIRRRPPRLPRPRPRPFPCPRP the “shrunken log2 fold change” value was 0.038. With RRIRARPPRLPRPRPRPATIPRP the “shrunken log2 fold change” value was 0.496. In the case of RRIRQRPPRLPRPRPRPLEMPRP, the “shrunken log2 fold change” value is reported as 0.155. With RRIRMRPPRLPRPRPRPRVYPRP the “shrunken log2 fold change” value was 0.0557. With RRIRGRPPRLPRPRPRPCMRPRP the “shrunken log2 fold change” value was 0.767. For RRIRERPPRLPRPRPRPNTLPRP, the “shrunken log2 fold change” value was -0.556. With RRIRVRPPRLPRPRPRPICLPRP the “shrunken log2 fold change” value was 0.0369. In the case of RRIRIRPPRLPRPRPRPFLMPRP, the “shrunken log2 fold change” value is reported as -0.314. For RRIRFRPPRLPRPRPRPAFYPRP, the “shrunken log2 fold change” value was -0.249. For RRIRIRPPRLPRPRPRPVEPPRP, the “shrunken log2 fold change” value was -0.115. In the case of RRIRDRPPRLPRPRPRPPRQPRP, the “shrunken log2 fold change” value is reported as 0.782. With RRIRGRPPRLPRPRPRPYLEPRP the “shrunken log2 fold change” value was 0.296. In the case of RRIRCRPPRLPRPRPRPPEVPRP, the “shrunken log2 fold change” value is reported as 0.124. In the case of RRIRDRPPRLPRPRPRPHLSPRP, the “shrunken log2 fold change” value is reported as 0.0479. With RRIRQRPPRLPRPRPRPSYPPRP the “shrunken log2 fold change” value was -0.857. In the case of RRIRLRPPRLPRPRPRPCNRPRP, the “shrunken log2 fold change” value is reported as 0.214. With RRIRYRPPRLPRPRPRPAWHPRP the “shrunken log2 fold change” value was -0.249. In the case of RRIRIRPPRLPRPRPRPCCFPRP, the “shrunken log2 fold change” value is reported as -0.725. In the case of RRIRPRPPRLPRPRPRPASLPRP, the “shrunken log2 fold change” value is reported as 0.187. With RRIRNRPPRLPRPRPRPSYGPRP the “shrunken log2 fold change” value was -0.156. In the case of RRIRSRPPRLPRPRPRPHKHPRP, the “shrunken log2 fold change” value is reported as -0.411. With RRIRPRPPRLPRPRPRPSSEPRP the “shrunken log2 fold change” value was 0.174. In the case of RRIRYRPPRLPRPRPRPISKPRP, the “shrunken log2 fold change” value is reported as -0.562. RRIRARPPRLPRPRPRPGTWPRP was tested, and the “shrunken log2 fold change” value was 0.161. For RRIRLRPPRLPRPRPRPFFVPRP, the “shrunken log2 fold change” value was -0.168. With RRIRKRPPRLPRPRPRPPSHPRP the “shrunken log2 fold change” value was 0.543. With RRIRDRPPRLPRPRPRPDGAPRP the “shrunken log2 fold change” value was 0.657. With RRIRYRPPRLPRPRPRPHNWPRP the “shrunken log2 fold change” value was -0.926. In the case of RRIRFRPPRLPRPRPRPLWSPRP, the “shrunken log2 fold change” value is reported as 0.655. RRIRYRPPRLPRPRPRPFLCPRP was tested, and the “shrunken log2 fold change” value was -1.19. With RRIRWRPPRLPRPRPRPGLTPRP the “shrunken log2 fold change” value was 0.0693. With RRIRGRPPRLPRPRPRPIDFPRP the “shrunken log2 fold change” value was -0.0475. RRIRPRPPRLPRPRPRPPEGPRP was tested, and the “shrunken log2 fold change” value was 0.436. In the case of RRIRERPPRLPRPRPRPYIQPRP, the “shrunken log2 fold change” value is reported as -0.184. For RRIRGRPPRLPRPRPRPKVNPRP, the “shrunken log2 fold change” value was 0.236. RRIRCRPPRLPRPRPRPMPEPRP was tested, and the “shrunken log2 fold change” value was 0.122. For RRIRMRPPRLPRPRPRPIMVPRP, the “shrunken log2 fold change” value was -0.0355. In the case of RRIRRRPPRLPRPRPRPKGTPRP, the “shrunken log2 fold change” value is reported as 0.25. RRIRVRPPRLPRPRPRPWTIPRP was tested, and the “shrunken log2 fold change” value was -0.281. With RRIRCRPPRLPRPRPRPCTHPRP the “shrunken log2 fold change” value was -0.48. RRIRKRPPRLPRPRPRPICKPRP was tested, and the “shrunken log2 fold change” value was 0.363. With RRIRIRPPRLPRPRPRPVDMPRP the “shrunken log2 fold change” value was -0.51. With RRIRTRPPRLPRPRPRPHIKPRP the “shrunken log2 fold change” value was -0.616. For RRIRVRPPRLPRPRPRPYRTPRP, the “shrunken log2 fold change” value was -0.19. In the case of RRIRGRPPRLPRPRPRPLKFPRP, the “shrunken log2 fold change” value is reported as 0.11. RRIRERPPRLPRPRPRPRKRPRP was tested, and the “shrunken log2 fold change” value was 0.255. RRIRVRPPRLPRPRPRPGNTPRP was tested, and the “shrunken log2 fold change” value was -0.113. RRIRTRPPRLPRPRPRPIKFPRP was tested, and the “shrunken log2 fold change” value was -0.0306. RRIRERPPRLPRPRPRPWVEPRP was tested, and the “shrunken log2 fold change” value was 0.0665. With RRIRRRPPRLPRPRPRPCFTPRP the “shrunken log2 fold change” value was -0.156. In the case of RRIRKRPPRLPRPRPRPYWQPRP, the “shrunken log2 fold change” value is reported as -0.0316. In the case of RRIRVRPPRLPRPRPRPKLVPRP, the “shrunken log2 fold change” value is reported as 0.194. In the case of RRIRDRPPRLPRPRPRPYFIPRP, the “shrunken log2 fold change” value is reported as -0.324. With RRIRERPPRLPRPRPRPPYSPRP the “shrunken log2 fold change” value was -0.102. For RRIRMRPPRLPRPRPRPEMDPRP, the “shrunken log2 fold change” value was 3.88. For RRIRVRPPRLPRPRPRPNEPPRP, the “shrunken log2 fold change” value was 0.097. RRIRNRPPRLPRPRPRPCRVPRP was tested, and the “shrunken log2 fold change” value was -0.0128. In the case of RRIRLRPPRLPRPRPRPMALPRP, the “shrunken log2 fold change” value is reported as -0.0125. For RRIRWRPPRLPRPRPRPREGPRP, the “shrunken log2 fold change” value was 1.28. In the case of RRIRCRPPRLPRPRPRPQDNPRP, the “shrunken log2 fold change” value is reported as -0.285. In the case of RRIRARPPRLPRPRPRPKNCPRP, the “shrunken log2 fold change” value is reported as -0.245. RRIRTRPPRLPRPRPRPCMIPRP was tested, and the “shrunken log2 fold change” value was -0.546. With RRIRKRPPRLPRPRPRPYFNPRP the “shrunken log2 fold change” value was -0.593. RRIRFRPPRLPRPRPRPASRPRP was tested, and the “shrunken log2 fold change” value was 0.128. With RRIRPRPPRLPRPRPRPDMVPRP the “shrunken log2 fold change” value was -0.177. For RRIRQRPPRLPRPRPRPKDQPRP, the “shrunken log2 fold change” value was 0.0983. RRIRARPPRLPRPRPRPWYNPRP was tested, and the “shrunken log2 fold change” value was -0.305. RRIRMRPPRLPRPRPRPYEDPRP was tested, and the “shrunken log2 fold change” value was 0.477. In the case of RRIRVRPPRLPRPRPRPKNLPRP, the “shrunken log2 fold change” value is reported as 0.0256. In the case of RRIRYRPPRLPRPRPRPFNGPRP, the “shrunken log2 fold change” value is reported as -0.0276. For RRIRRRPPRLPRPRPRPTYFPRP, the “shrunken log2 fold change” value was 0.0897. In the case of RRIRHRPPRLPRPRPRPSEEPRP, the “shrunken log2 fold change” value is reported as -0.00149. For RRIRPRPPRLPRPRPRPGNQPRP, the “shrunken log2 fold change” value was -0.143. RRIRWRPPRLPRPRPRPANEPRP was tested, and the “shrunken log2 fold change” value was 0.134. With RRIRLRPPRLPRPRPRPCLPPRP the “shrunken log2 fold change” value was -0.0626. With RRIRSRPPRLPRPRPRPIMFPRP the “shrunken log2 fold change” value was -0.304.
